Experimental data taken from publication PMC3417467.
Read-outs that look alike come from different tables or passages of the source.

Experiments:
Assay in all cases: competitive cell adhesion assay
[1] = target: integrins on WM-115 cells (mainly integrin α5β1, αVβ3, and αVβ5)
[2] = target: integrins on WM-115 cells (mainly integrin α5β1, αVβ3, and αVβ5); remark: listed apart in the source
[3] = target: integrins on WM-115 cells (mainly integrin α5β1, αVβ3, and αVβ5); remark: listed apart in the source
[4] = target: integrins on WM-115 cells (mainly integrin α5β1, αVβ3, and αVβ5); remark: listed apart in the source
[5] = target: integrins on WM-115 cells (mainly integrin α5β1, αVβ3, and αVβ5); remark: listed apart in the source
[6] = target: integrins on WM-115 cells (mainly integrin α5β1, αVβ3, and αVβ5); remark: listed apart in the source

| Binder | IC50 [1] | IC50 [2] | IC50 [3] | IC50 [4] | IC50 [5] | IC50 [6] |
| --- | --- | --- | --- | --- | --- | --- |
| FEANE (HELM PEPTIDE1{[dF].E.A.N.E}$PEPTIDE1,PEPTIDE1,1:R1-5:R2$$$V2.0; SMILES C[C@@H]1NC(=O)[C@H](CCC(=O)O)NC(=O)[C@@H](Cc2ccccc2)NC(=O)[C@H](CCC(=O)O)NC(=O)[C@H](CC(N)=O)NC1=O) [cyclopeptide-1 c-(-fEANE-)] | 43 to 340 µM | > 1000 µM | > 1000 µM |  |  |  |
| FEANE (HELM PEPTIDE1{F.E.[dA].N.E}$PEPTIDE1,PEPTIDE1,1:R1-5:R2$$$V2.0; SMILES C[C@H]1NC(=O)[C@H](CCC(=O)O)NC(=O)[C@H](Cc2ccccc2)NC(=O)[C@H](CCC(=O)O)NC(=O)[C@H](CC(N)=O)NC1=O) [cyclopeptide-3 c-(-FEaNE-)] | > 1000 µM | > 1000 µM | > 1000 µM |  |  |  |
| FEANE (HELM PEPTIDE1{F.E.A.[dN].E}$PEPTIDE1,PEPTIDE1,1:R1-5:R2$$$V2.0; SMILES C[C@@H]1NC(=O)[C@H](CCC(=O)O)NC(=O)[C@H](Cc2ccccc2)NC(=O)[C@H](CCC(=O)O)NC(=O)[C@@H](CC(N)=O)NC1=O) [cyclopeptide-4 c-(-FEAnE-)] | > 1000 µM | > 1000 µM | > 1000 µM |  |  |  |
| ANFEANELFFISEDV [linear peptide 6 (…)] | 9 µM | 239 µM | > 1000 µM |  |  |  |
| RGDLA (HELM PEPTIDE1{R.G.D.[dL].A}$PEPTIDE1,PEPTIDE1,1:R1-5:R2$$$V2.0; SMILES CC(C)C[C@H]1NC(=O)[C@H](CC(=O)O)NC(=O)CNC(=O)[C@H](CCCNC(=N)N)NC(=O)[C@H](C)NC1=O) [cyclopeptide-7 c-(-RGDlA-)] |  |  | 2.39 µM | 0.67 µM | 1.65 µM | 0.88 µM |
| FEANE (HELM PEPTIDE1{F.E.A.N.[dE]}$PEPTIDE1,PEPTIDE1,1:R1-5:R2$$$V2.0; SMILES C[C@@H]1NC(=O)[C@H](CCC(=O)O)NC(=O)[C@H](Cc2ccccc2)NC(=O)[C@@H](CCC(=O)O)NC(=O)[C@H](CC(N)=O)NC1=O) [cyclopeptide-5 c-(-FEANe-)] | > 1000 µM | > 1000 µM | > 1000 µM |  |  |  |
| FEANE (HELM PEPTIDE1{F.[dE].A.N.E}$PEPTIDE1,PEPTIDE1,1:R1-5:R2$$$V2.0; SMILES C[C@@H]1NC(=O)[C@@H](CCC(=O)O)NC(=O)[C@H](Cc2ccccc2)NC(=O)[C@H](CCC(=O)O)NC(=O)[C@H](CC(N)=O)NC1=O) [cyclopeptide-2 c-(-FeANE-)] | 30 to 530 µM | 54 to 430 µM | > 1000 µM |  |  |  |
